Reference: patent US20210332133A1 (TENEOTWO, published 2021)
Substitutions are numbered along the chain they refer to.

T1: human CD19 (human, UniProt P15391 20-291)
T1 construct: also called B-Lymphocyte Surface Antigen B4; recombinant CD19 extracellular domain
T1 sequence (looked up): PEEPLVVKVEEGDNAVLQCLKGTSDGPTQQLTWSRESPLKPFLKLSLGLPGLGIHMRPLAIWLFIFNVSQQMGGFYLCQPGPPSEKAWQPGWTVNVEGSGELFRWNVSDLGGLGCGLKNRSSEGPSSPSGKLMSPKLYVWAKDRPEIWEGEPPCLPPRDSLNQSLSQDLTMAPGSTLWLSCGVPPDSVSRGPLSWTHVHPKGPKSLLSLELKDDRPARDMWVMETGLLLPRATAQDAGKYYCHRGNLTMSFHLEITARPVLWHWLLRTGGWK

T2: human CD19 on CD19-positive cells (Daudi, Raji, Ramos; CD19+ tumor cell line) (human, UniProt P15391 20-556)
T2 construct: whole, on cells
T2 sequence (looked up): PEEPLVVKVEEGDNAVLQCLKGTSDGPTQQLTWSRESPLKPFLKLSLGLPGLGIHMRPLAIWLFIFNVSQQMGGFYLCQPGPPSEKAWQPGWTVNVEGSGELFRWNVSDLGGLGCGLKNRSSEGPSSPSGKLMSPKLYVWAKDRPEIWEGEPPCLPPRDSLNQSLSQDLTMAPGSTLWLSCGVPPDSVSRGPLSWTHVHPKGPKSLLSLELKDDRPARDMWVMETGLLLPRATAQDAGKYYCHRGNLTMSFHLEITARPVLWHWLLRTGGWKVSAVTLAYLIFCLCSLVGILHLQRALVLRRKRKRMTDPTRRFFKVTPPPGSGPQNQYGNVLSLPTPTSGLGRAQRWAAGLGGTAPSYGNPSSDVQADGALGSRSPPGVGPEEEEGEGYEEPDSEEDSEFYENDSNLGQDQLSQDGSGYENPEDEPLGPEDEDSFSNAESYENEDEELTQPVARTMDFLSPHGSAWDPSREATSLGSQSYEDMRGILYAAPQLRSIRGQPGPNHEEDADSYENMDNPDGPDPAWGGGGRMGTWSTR

B1: SEQ ID NO 21 (antibody, V domains shown)
VH: EVQLVESGGGLVQPGGSLRLSCVASGFTFSSYWMSWVRQAPGKGLEWVANIKQDGSEKEYVDSVKGRFTISRDNAKNSLYLQMNSLRAEDTAVYYCASGVYSFDYRGQGTLVTVSS
notes: Heavy chain-only antibody (UniAb, human IgG, no light chain, no CH1)
B2: SEQ ID NO 18 (antibody, V domains shown)
VH: B1 VH with Q13K, V23E, N50H, E59Y
notes: as for B1
B3: SEQ ID NO 17 (antibody, V domains shown)
VH: B1 VH with V23A, T28S, S31D, Y32F, N50T, K52S, D54A, E59D, N77K
notes: as for B1
B4: SEQ ID NO 14 (antibody, V domains shown)
VH: B1 VH with V23A, S31N, L45Q, N50T, K52N, E57D, E59D, N77K
notes: as for B1
B5: SEQ ID NO 19 (antibody, V domains shown)
VH: B1 VH with S31D, K52N, Q53K, D54A, K58E, E59F, N84D
notes: as for B1
B6: SEQ ID NO 20 (antibody, V domains shown)
VH: B1 VH with R19T, S31D, W33Y, V37I, E59F, A75P, N84D, A88V
notes: as for B1
B7: SEQ ID NO 15 (antibody, V domains shown)
VH: B1 VH with V12A, V23A, Y32F, N50T, I51M, K52N, E59D, R87T
notes: as for B1
B8: SEQ ID NO 16 (antibody, V domains shown)
VH: B1 VH with L11M, V23A, N50T, K52N, E59D, N77K, Y80L
notes: as for B1

molecular target: T1, human CD19; assay: ELISA on recombinant CD19 extracellular domain and/or cell-binding assay

Binding result, binds:
B1, B2, B3, B4, B5, B6, B7, B8

molecular target: T2, human CD19 on CD19-positive cells …; assay: cell binding, flow cytometry
Description: Binding to CD19 positive cells was assessed by flow cytometry (Guava easyCyte 8HT, EMD Millipore) using the Daudi cell line (ATCC). Briefly, 100,000 target cells were stained with a dilution series of purified UniAbs™ for 30 minutes at 4° C. Following incubation, the cells were washed twice with flow cytometry buffer (1X PBS, 1% BSA, 0.1% NaN₃) and stained with goat F(ab′)2 anti-human IgG conjugated to R-phycoerythrin (PE) (Southern Biotech, cat. #2042-09) to detect cell-bound antibodies. After a 20-minute incubation at 4° C., the cells were washed twice with flow cytometry buffer and then mean fluorescence intensity (MFI) was measured by flow cytometry. EC50 values were calculated using GraphPad Prism 7. Binding to cynomolgus CD19 positive cells was determined using the same protocol with the following modifications: the target cells were from CHO cells stably transfected to express the extracellular domain of cynomolgus CD19 and each antibody was tested at a single concentration (˜1.7 μg/mL) so EC50 values were not calculated.

Binding result, binds:
B1, B2, B3, B4, B5, B6, B7, B8
